These results are taken from patent US20140341922A1, “Method for Overcoming Tolerance to Targeted Anti-Cancer Agent” (SUN R&DB Foundation, priority 2011, published 2014).

One series deals with T1, IGF-1R (Homo sapiens, UniProt P08069).
T1 construct: endogenous in cells; host or cells: LN686 cells
The series can be described thus: IGF-1-induced IGF-1R phosphorylation, Western blot. It is filed as cell-based. To be noted: LN686 cells, cixutumumab 6 h, then 100 ng/ml IGF-1 for 30 min. On the procedure:
Preparation of total cell lysates, Western blot analysis, and immunoprecipitation were performed according to methods described in our previous report (Morgillo et al., 2006).
LN686 cells were treated with increasing concentrations of cixutumumab for 6 h, and then stimulated with 100 ng/ml IGF-1 for 30 min.
On the technique in general: A western blot detects proteins with antibodies after separation by electrophoresis.

The subject of series [1] is 13 HNSCC and 6 NSCLC cells. The series can be described thus: MTS viability assay in PCPs and UAPs. It is filed as cell-based, human. To be noted: PCPs, 25 μg/ml, 7 days. The protocol: Cells were cultured in 96-well poly(poly-2-hydroxyethyl methacrylate [HEMA])-coated plates (PCPs) or ultra-low attached plates (UAPs). Control IgG1 (25 μg/ml), cixutumumab (25 μg/ml), PP2 (10 μM), and an integrin β3 neutralizing antibody B3A (10 μg/ml) were diluted in culture media containing 10% FBS or IGF-1 and treated alone or in combination. To examine the effect on cancer cell proliferation, a 3-(4,5-dimethylthiazol-2-yl)-2,5-diphenyltetrazolium bromide (MTT) or 3-(4,5-dimethylthiazol-2-yl)-5-(3-carboxymethoxyphenyl)-2-(4-sulfophenyl)-2H-tetrazolium (MTS) assay was performed, and to evaluate the effect on anchorage-independent colony formation, a soft agar colony formation assay was performed according to a method in our previous report (Morgillo et al., 2006).
The PCPs were prepared according to a previously reported method (Fukazawa et al., 1995). In brief, tissue culture plates were collated twice with poly-(HEMA) (10 mg/ml in 95% ethanol) at 37° C. and then washed with phosphate-buffered saline (PBS) several times.
HNSCC and NSCLC cells grown in PCPs and UAPs were treated with cixutumumab (25 μg/ml) for 7 days. Each bar represents mean±SD of 6 wells of a single representative experiment.
(Tetrazolium dyes change colour on reduction, which living cells bring about.)

The test system of series [2] is recombinant soluble integrin β3 (rβ3) binding to IGF-1. Nature of the series: ELISA-type integrin binding assay on IGF-1-coated plates. The note with it: 2 h. The protocol:
IGF-1 (1 or 2 μg) was coated onto wells in 96-well microtiter plates and incubated with recombinant integrin β3 (0.5 μg/ml) and/or IGF-1R (0.1 or 0.5 μg/ml) protein diluted in 1 mM MnCl2-added HEPES-Tyrode buffer at room temperature for 2 h in the presence or absence of cixutumumab (10 μg/ml). Binding of integrin β3 and/or IGF-1R was detected by enzyme immunoassay using anti-His or anti-IGF-1R mAbs and avidin-labeled alkaline phosphatase-conjugated anti-mouse or anti-rabbit IgGs.
Secondly, the present inventors performed Enzyme-Linked ImmunoSorbent Assay-type integrin binding assay. Specifically, 96-well microtiter plates coated with IGF-1 were recombinant soluble IGF-1R (rIGF-1R; 5 μg/ml) or recombinant soluble integrin β3 (rβ3; 5 μg/ml), alone or in combination, in the presence or absence of cixutumumab (25 μg/ml) for 2 h. Bound IGF-1R (left) and integrin β3 (middle, right) were identified using anti-IGF1R and anti-His mAbs, respectively. The data are shown as the mean±SD of triplicate experiments (*P<0.05; **P=0.01; ***P<0.001).
(In general: An ELISA detects its analyte on a solid surface through an enzyme-linked reagent.)

In series [3] the test system is Src and FAK phosphorylation. The series can be described thus: Fluorescent immunostaining of pSrc and pFAK. It is filed as cell-based, human. From the text: The present inventors reconfirmed the western blot analysis results in which Src and FAK phosphorylation was increased due to cixutumumab in the presence of IGF-1 by fluorescent immunostaining. Cultured LN686 cells in UAPs with cixutumumab alone or in combination with IGF-1 or an integrin β3 neutralizing antibody, treated with IGF-1 to fix, and then Src and FAK phosphorylation was confirmed. […] Such an action of the cixutumumab was abolished by the IGF-1 or integrin β3 neutralizing antibody, and therefore it was reconfirmed that the action of cixutumumab for inducing the Src and FAK phosphorylation was mediated by integrin β3 in the presence of IGF-1.
According to the Previous study, a modified integrin β3 expression vector was prepared by substituting an amino acid sequence (CYDMKTTC, residues 177-184) of the integrin β3 essential for the IGF-1 bond with an amino acid sequence (CTSEQNC, residues 187-193) of integrin β1 at a corresponding position. An empty vector or a modified integrin β3 expression vector was transfected into FADU cells. These cells were plated, and cultured along with cixutumumab (25 μg/ml) alone or in combination with IGF-1 or an integrin β3 neutralizing antibody for 4 h. After the culture, IGF-1 […] was treated for 1 hour, and the cells were recovered, washed with PBS, and fixed with 10% formalin for 2 h. […]

“Also recorded” adds a separate entry of the source.

T1 sequence (P08069 31-1367): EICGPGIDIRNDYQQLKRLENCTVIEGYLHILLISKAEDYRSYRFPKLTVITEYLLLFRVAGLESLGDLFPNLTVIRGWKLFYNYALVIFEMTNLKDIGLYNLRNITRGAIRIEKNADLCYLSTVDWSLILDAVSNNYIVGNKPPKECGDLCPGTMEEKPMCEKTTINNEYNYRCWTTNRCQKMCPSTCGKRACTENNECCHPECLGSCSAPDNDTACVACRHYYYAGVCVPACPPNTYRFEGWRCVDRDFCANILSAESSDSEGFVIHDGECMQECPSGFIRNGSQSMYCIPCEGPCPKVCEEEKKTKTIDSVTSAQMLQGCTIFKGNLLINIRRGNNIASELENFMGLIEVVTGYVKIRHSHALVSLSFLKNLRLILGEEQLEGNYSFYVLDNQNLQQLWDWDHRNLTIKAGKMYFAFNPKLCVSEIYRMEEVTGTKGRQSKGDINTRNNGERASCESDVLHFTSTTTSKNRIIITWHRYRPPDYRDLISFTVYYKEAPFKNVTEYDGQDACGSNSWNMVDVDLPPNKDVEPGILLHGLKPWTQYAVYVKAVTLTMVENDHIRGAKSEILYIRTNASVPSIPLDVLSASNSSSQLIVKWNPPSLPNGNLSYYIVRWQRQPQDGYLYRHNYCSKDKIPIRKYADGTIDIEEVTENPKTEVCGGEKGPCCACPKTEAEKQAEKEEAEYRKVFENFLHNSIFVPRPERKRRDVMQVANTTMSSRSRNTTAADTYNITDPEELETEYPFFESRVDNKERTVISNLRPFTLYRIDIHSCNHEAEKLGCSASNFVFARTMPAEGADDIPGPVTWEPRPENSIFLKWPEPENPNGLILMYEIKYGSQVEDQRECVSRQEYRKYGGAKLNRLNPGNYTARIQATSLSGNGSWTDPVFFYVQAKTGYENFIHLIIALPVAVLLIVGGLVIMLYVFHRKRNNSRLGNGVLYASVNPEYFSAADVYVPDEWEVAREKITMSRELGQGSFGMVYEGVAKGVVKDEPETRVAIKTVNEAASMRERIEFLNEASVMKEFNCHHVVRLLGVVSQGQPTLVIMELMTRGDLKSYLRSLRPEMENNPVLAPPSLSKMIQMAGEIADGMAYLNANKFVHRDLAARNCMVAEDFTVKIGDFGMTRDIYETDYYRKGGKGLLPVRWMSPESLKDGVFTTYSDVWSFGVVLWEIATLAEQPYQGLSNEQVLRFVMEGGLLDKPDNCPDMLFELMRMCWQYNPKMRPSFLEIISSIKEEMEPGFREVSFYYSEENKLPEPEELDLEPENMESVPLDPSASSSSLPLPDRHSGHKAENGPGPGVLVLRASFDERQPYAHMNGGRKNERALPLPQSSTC

Turning to “cixutumumab: humanized mAb targeting IGF-1R, provided by ImClone Systems”, the “IGF-1-induced IGF-1R phosphorylation” value in the series with IGF-1R is “markedly inhibited; also recorded: concentration-dependent inhibitory effect”. The inhibition in viability result in series [1] (7 HNSCC and 2 NSCLC cell lines (red, resistant)) is listed as “less than 20%”; in series [1] (remaining 2 HNSCC and 2 NSCLC cell lines (black, sensitive)) it was “more than 60%”. Besides, in series [2], the “ablation of IGF-1-rβ3 interaction by rIGF-1R” value is reported as “markedly blocked”. The “IGF-1-induced Src and FAK phosphorylation in cell membrane” value in series [3] (LN686 cells adhered to ECM-coated coverslip) is on record as “did not suppress or somewhat increased”. The “Src and FAK phosphorylation (immunostaining)” value in series [3] (LN686 cells in UAPs, in the presence of IGF-1) was “enhanced phosphorylation”.
